Assay results reported in publication PMC11402997.

Conditions: phosphorylation at S2808

## RyR2 (ryanodine receptor type 2): S2808D phosphomimetic (expressing cells also treated with H2O2; irreversible oxidative modifications retained)
  structure_or_conformation: changes, RMSD normalized projection = 0.11 (subprimed state)

## RyR2 (ryanodine receptor type 2): S2808D phosphomimetic
  other: increases
